Source: patent US20160024210A1 (AstraZeneca / MedImmune, published 2016)

T1: human H7CR (B7-H7 counter-receptor) (human, UniProt Q96BF3 23-282)
T1 construct: Used for H7CR on CHO.hH7CR transfectants, human T cells and tonsil tissue; also called B7-H7CR; CD28H
T1 sequence: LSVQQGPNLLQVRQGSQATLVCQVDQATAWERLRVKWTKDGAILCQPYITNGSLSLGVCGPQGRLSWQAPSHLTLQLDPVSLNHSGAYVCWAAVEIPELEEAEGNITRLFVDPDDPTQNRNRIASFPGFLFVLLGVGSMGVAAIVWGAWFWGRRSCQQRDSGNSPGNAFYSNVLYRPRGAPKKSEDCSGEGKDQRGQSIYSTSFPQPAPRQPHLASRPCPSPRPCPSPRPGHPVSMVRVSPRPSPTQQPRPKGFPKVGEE

T2: H7CR-GFP fusion protein on transfected CHO cells (Homo sapiens (Human), UniProt Q96BF3 23-282)
T2 construct: not shown: GFP part
T2 sequence: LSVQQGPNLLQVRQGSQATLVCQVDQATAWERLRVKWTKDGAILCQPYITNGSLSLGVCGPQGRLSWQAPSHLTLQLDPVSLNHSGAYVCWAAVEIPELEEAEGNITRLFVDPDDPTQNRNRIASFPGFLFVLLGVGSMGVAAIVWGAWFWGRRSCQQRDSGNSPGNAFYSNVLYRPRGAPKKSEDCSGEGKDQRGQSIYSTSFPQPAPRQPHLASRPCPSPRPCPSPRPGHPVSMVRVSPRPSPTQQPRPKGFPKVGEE


Experiments:
[1] = target: T1, human H7CR (B7-H7 counter-receptor); assay: binding to human H7CR as endogenously expressed on the surface of a cell
[2] = target: T2, H7CR-GFP fusion protein on transfected …; assay: flow cytometry, 5 µg/ml variant on H7CR-GFP transfected CHO cells, anti-hIg PE secondary antibody [row HC2-2, column LC1-2]
Experimental: (§1) 5 μg/ml antibodies from thirty-six variants were incubated with H7CR-GFP fusion protein transfected CHO cells for 30 min at room temperature. Cells were then washed twice with 2 ml flow cytometry buffer, and resuspended in 100 μl flow cytometry buffer. 1 μl anti-hIg PE secondary antibody (Biolegend) was added and incubated with the cells for 15 mins Samples were then washed and resuspended in 100 μl flow cytometry buffer. Flow Cytometry data was acquired using BD Canto (BD Biosciences) in plate format and analyzed by FlowJo software.

[3] = target: T2, H7CR-GFP fusion protein on transfected …; assay: flow cytometry, 5 µg/ml variant on H7CR-GFP transfected CHO cells, anti-hIg PE secondary antibody [row HC2-2, column LC2-2]
Experimental: as §1

[4] = target: T2, H7CR-GFP fusion protein on transfected …; assay: flow cytometry, 5 µg/ml variant on H7CR-GFP transfected CHO cells, anti-hIg PE secondary antibody [row HC2-1, column LC2-1]
Experimental: as §1

[5] = target: T2, H7CR-GFP fusion protein on transfected …; assay: flow cytometry, 5 µg/ml variant on H7CR-GFP transfected CHO cells, anti-hIg PE secondary antibody [row HC2-2, column LC1-1]
Experimental: as §1

[6] = target: T2, H7CR-GFP fusion protein on transfected …; assay: flow cytometry, 5 µg/ml variant on H7CR-GFP transfected CHO cells, anti-hIg PE secondary antibody [row HC2-2, column LC2-1]
Experimental: as §1

[7] = target: T2, H7CR-GFP fusion protein on transfected …; assay: flow cytometry, 5 µg/ml variant on H7CR-GFP transfected CHO cells, anti-hIg PE secondary antibody [row HC2-1, column LC1-3]
Experimental: as §1

[8] = target: T2, H7CR-GFP fusion protein on transfected …; assay: flow cytometry, 5 µg/ml variant on H7CR-GFP transfected CHO cells, anti-hIg PE secondary antibody [row HC2-1, column LC2-3]
Experimental: as §1

[9] = target: T2, H7CR-GFP fusion protein on transfected …; assay: flow cytometry, 5 µg/ml variant on H7CR-GFP transfected CHO cells, anti-hIg PE secondary antibody [row HC2-1, column LC2-2]
Experimental: as §1

[10] = target: T2, H7CR-GFP fusion protein on transfected …; assay: flow cytometry, 5 µg/ml variant on H7CR-GFP transfected CHO cells, anti-hIg PE secondary antibody [row HC2-3, column LC1-2]
Experimental: as §1

[11] = target: T2, H7CR-GFP fusion protein on transfected …; assay: flow cytometry, 5 µg/ml variant on H7CR-GFP transfected CHO cells, anti-hIg PE secondary antibody [row HC2-2, column LC2-3]
Experimental: as §1

[12] = target: T2, H7CR-GFP fusion protein on transfected …; assay: flow cytometry, 5 µg/ml variant on H7CR-GFP transfected CHO cells, anti-hIg PE secondary antibody [row HC2-3, column LC1-1]
Experimental: as §1

[13] = target: T2, H7CR-GFP fusion protein on transfected …; assay: flow cytometry, 5 µg/ml variant on H7CR-GFP transfected CHO cells, anti-hIg PE secondary antibody [row HC2-2, column LC1-3]
Experimental: as §1

| Binder | binding result [1] | further results |
| --- | --- | --- |
| 4.5 humanized variant 26 (HC2-2 / LC1-2) (antibody, V domains shown, Variable domains only; detected with anti-hIg secondary; also called VH2B / VL1B) VH: QITLKESGPTLVKPTQTLTLTCTVSGFSITTGGYYWNWIRQPPGKKLEWLALIYTSGRTSYNPSLKSRLTITKDTSKNQVVLTMTNMDPVDTATYYCADMADKGGWFAYWGQGTLVTVSS VL: DIVMTQSPDSLAVSLGERATINCKSSQSLFSSNTKRNYLNWYQQKPGQPPKLLIYHASTRLSGVPDRFSGSGSGTDFTLTISSLQAEDVADYFCQQHYETPLTFGDGTRLEIK | binds | binding result [2]: binds |
| 4.5 humanized variant 29 (HC2-2 / LC2-2) (antibody, V domains shown, Variable domains only; detected with anti-hIg secondary; also called VH2B / VL2B) VH: QITLKESGPTLVKPTQTLTLTCTVSGFSITTGGYYWNWIRQPPGKKLEWLALIYTSGRTSYNPSLKSRLTITKDTSKNQVVLTMTNMDPVDTATYYCADMADKGGWFAYWGQGTLVTVSS VL: DIVMTQTPLSLPVTPGEPASISCRSSQSLFSSNTKRNYLNWYLQKPGQSPKLLIYHASTRLSGVPDRFSGSGSGTDFTLKISRVEAEDVGDYFCQQHYETPLTFGDGTRLEIK | binds | binding result [3]: binds |
| 4.5 humanized variant 22 (HC2-1 / LC2-1) (antibody, V domains shown, Variable domains only; detected with anti-hIg secondary; also called VH2A / VL2A) VH: QITLKESGPTLVKPTQTLTLTCTFSGFSITTGGYYVGWIRQPPGKALEWLALIYTSGRTRYSPSLKSRLTITKDTSKNQVVLTMTNMDPVDTATYYCADMADKGGWFAYWGQGTLVTVSS VL: DIVMTQTPLSLPVTPGEPASISCRSSQSLFSSNTKRNYLDWYLQKPGQSPQLLIYHASYRASGVPDRFSGSGSGTDFTLKISRVEAEDVGVYYCQQHYETPLTFGQGTRLEIK | binds | binding result [4]: binds |
| 4.5 humanized variant 25 (HC2-2 / LC1-1) (antibody, V domains shown, Variable domains only; detected with anti-hIg secondary; also called VH2B / VL1A) VH: QITLKESGPTLVKPTQTLTLTCTVSGFSITTGGYYWNWIRQPPGKKLEWLALIYTSGRTSYNPSLKSRLTITKDTSKNQVVLTMTNMDPVDTATYYCADMADKGGWFAYWGQGTLVTVSS VL: DIVMTQSPDSLAVSLGERATINCKSSQSLFSSNTKRNYLAWYQQKPGQPPKLLIYHASTRESGVPDRFSGSGSGTDFTLTISSLQAEDVAVYYCQQHYETPLTFGQGTRLEIK | binds | binding result [5]: binds |
| 4.5 humanized variant 28 (HC2-2 / LC2-1) (antibody, V domains shown, Variable domains only; detected with anti-hIg secondary; also called VH2B / VL2A) VH: QITLKESGPTLVKPTQTLTLTCTVSGFSITTGGYYWNWIRQPPGKKLEWLALIYTSGRTSYNPSLKSRLTITKDTSKNQVVLTMTNMDPVDTATYYCADMADKGGWFAYWGQGTLVTVSS VL: DIVMTQTPLSLPVTPGEPASISCRSSQSLFSSNTKRNYLDWYLQKPGQSPQLLIYHASYRASGVPDRFSGSGSGTDFTLKISRVEAEDVGVYYCQQHYETPLTFGQGTRLEIK | binds | binding result [6]: binds |
| 4.5 humanized variant 21 (HC2-1 / LC1-3) (antibody, V domains shown, Variable domains only; detected with anti-hIg secondary; also called VH2A / VL1C) VH: QITLKESGPTLVKPTQTLTLTCTFSGFSITTGGYYVGWIRQPPGKALEWLALIYTSGRTRYSPSLKSRLTITKDTSKNQVVLTMTNMDPVDTATYYCADMADKGGWFAYWGQGTLVTVSS VL: DIVMTQSPDSLAVSLGERATINCLSSQSLFSSNTKRNYLNWYQQKPGQSPKLLIYHASTRLSGVPDRFSGSGSGTDFTLTISSLQAEDVADYFCQQHYETPLTFGDGTRLEIK | binds | binding result [7]: binds |
| 4.5 humanized variant 24 (HC2-1 / LC2-3) (antibody, V domains shown, Variable domains only; detected with anti-hIg secondary; also called VH2A / VL2C) VH: QITLKESGPTLVKPTQTLTLTCTFSGFSITTGGYYVGWIRQPPGKALEWLALIYTSGRTRYSPSLKSRLTITKDTSKNQVVLTMTNMDPVDTATYYCADMADKGGWFAYWGQGTLVTVSS VL: DIVMTQTPSSLPVTPGEPASISCLSSQSLFSSNTKRNYLNWYLQKPGQSPKLLIYHASTRLSGVPDRFSGSGSGTDFTLKISRVEAEDVGDYFCQQHYETPLTFGDGTRLEIK | binds | binding result [8]: binds |
| 4.5 humanized variant 23 (HC2-1 / LC2-2) (antibody, V domains shown, Variable domains only; detected with anti-hIg secondary; also called VH2A / VL2B) VH: QITLKESGPTLVKPTQTLTLTCTFSGFSITTGGYYVGWIRQPPGKALEWLALIYTSGRTRYSPSLKSRLTITKDTSKNQVVLTMTNMDPVDTATYYCADMADKGGWFAYWGQGTLVTVSS VL: DIVMTQTPLSLPVTPGEPASISCRSSQSLFSSNTKRNYLNWYLQKPGQSPKLLIYHASTRLSGVPDRFSGSGSGTDFTLKISRVEAEDVGDYFCQQHYETPLTFGDGTRLEIK | binds | binding result [9]: binds |
| 4.5 humanized variant 32 (HC2-3 / LC1-2) (antibody, V domains shown, Variable domains only; detected with anti-hIg secondary; also called VH2C / VL1B) VH: QIQLKESGPTLVKPTQTLTLTCTVSGFSITTGGYYWNWIRQPPGKKLEWMALIYTSGRTSYNPSLKSRLTITKDTSKNQVVLTMTNMDPVDTATYYCADMADKGGWFAYWGQGTLVTVSS VL: DIVMTQSPDSLAVSLGERATINCKSSQSLFSSNTKRNYLNWYQQKPGQPPKLLIYHASTRLSGVPDRFSGSGSGTDFTLTISSLQAEDVADYFCQQHYETPLTFGDGTRLEIK | binds | binding result [10]: binds |
| 4.5 humanized variant 30 (HC2-2 / LC2-3) (antibody, V domains shown, Variable domains only; detected with anti-hIg secondary; also called VH2B / VL2C) VH: QITLKESGPTLVKPTQTLTLTCTVSGFSITTGGYYWNWIRQPPGKKLEWLALIYTSGRTSYNPSLKSRLTITKDTSKNQVVLTMTNMDPVDTATYYCADMADKGGWFAYWGQGTLVTVSS VL: DIVMTQTPSSLPVTPGEPASISCLSSQSLFSSNTKRNYLNWYLQKPGQSPKLLIYHASTRLSGVPDRFSGSGSGTDFTLKISRVEAEDVGDYFCQQHYETPLTFGDGTRLEIK | binds | binding result [11]: binds |
| 4.5 humanized variant 31 (HC2-3 / LC1-1) (antibody, V domains shown, Variable domains only; detected with anti-hIg secondary; also called VH2C / VL1A) VH: QIQLKESGPTLVKPTQTLTLTCTVSGFSITTGGYYWNWIRQPPGKKLEWMALIYTSGRTSYNPSLKSRLTITKDTSKNQVVLTMTNMDPVDTATYYCADMADKGGWFAYWGQGTLVTVSS VL: DIVMTQSPDSLAVSLGERATINCKSSQSLFSSNTKRNYLAWYQQKPGQPPKLLIYHASTRESGVPDRFSGSGSGTDFTLTISSLQAEDVAVYYCQQHYETPLTFGQGTRLEIK | binds | binding result [12]: binds |
| 4.5 humanized variant 27 (HC2-2 / LC1-3) (antibody, V domains shown, Variable domains only; detected with anti-hIg secondary; also called VH2B / VL1C) VH: QITLKESGPTLVKPTQTLTLTCTVSGFSITTGGYYWNWIRQPPGKKLEWLALIYTSGRTSYNPSLKSRLTITKDTSKNQVVLTMTNMDPVDTATYYCADMADKGGWFAYWGQGTLVTVSS VL: DIVMTQSPDSLAVSLGERATINCLSSQSLFSSNTKRNYLNWYQQKPGQSPKLLIYHASTRLSGVPDRFSGSGSGTDFTLTISSLQAEDVADYFCQQHYETPLTFGDGTRLEIK | binds | binding result [13]: binds |
